Read-outs that look alike come from different tables or passages of the source.
Experiments:
[1] = target: human Her2/neu receptor (human) (UniProt P04626); test: flow cytometry, SKBR3 cells stained with Herceptin
[2] = target: human Her2/neu receptor (human) (UniProt P04626)

## Herceptin, the humanized form of 4D5 (antibody)
[1]
  mean fluorescence: 401
[2]
  mean fluorescence: 186

Source: patent publication US7429481
